Article PMC2212970
Like-named read-outs stand apart in the source and are kept apart here.

B1: NF-kB consensus WT (dsDNA)
DNA 1: AGTTGAGGGGACTTTCCCAGGC
DNA 2: GCCTGGGAAAGTCCCCTCAACT
B2: AP-1 consensus (dsDNA)
DNA 1: CGCTTGATGAGTCAGCCGGAA
DNA 2: TTCCGGCTGACTCATCAAGCG
B3: GATA-1 consensus (dsDNA)
DNA 1: AATTGGACCGTATCTCCC
DNA 2: GGGAGATACGGTCCAATT
B4: Sp-1 consensus (dsDNA)
DNA 1: ATTCGATCGGGCGGGGCGAG
DNA 2: CTCGCCCCGCCCGATCGAAT
B5: CREB consensus (dsDNA)
DNA 1: AGAGATTGCCTGACGTCAGACAGCTAG
DNA 2: CTAGCTGTCTGACGTCAGGCAATCTCT

Legend:
Experiment in all cases: EMSA
[1] = biological target: T1, SLPI (secretory leucoprotease inhibitor) (UniProt P03973 26-132)
T1 sequence (P03973 26-132): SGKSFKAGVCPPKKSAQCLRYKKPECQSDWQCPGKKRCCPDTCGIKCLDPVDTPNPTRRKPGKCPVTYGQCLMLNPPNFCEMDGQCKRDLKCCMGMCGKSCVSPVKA

NF-kB p65 = NF-kB p65 (UniProt Q04206 1-551)
Chain of NF-kB p65 (Q04206 whole entry): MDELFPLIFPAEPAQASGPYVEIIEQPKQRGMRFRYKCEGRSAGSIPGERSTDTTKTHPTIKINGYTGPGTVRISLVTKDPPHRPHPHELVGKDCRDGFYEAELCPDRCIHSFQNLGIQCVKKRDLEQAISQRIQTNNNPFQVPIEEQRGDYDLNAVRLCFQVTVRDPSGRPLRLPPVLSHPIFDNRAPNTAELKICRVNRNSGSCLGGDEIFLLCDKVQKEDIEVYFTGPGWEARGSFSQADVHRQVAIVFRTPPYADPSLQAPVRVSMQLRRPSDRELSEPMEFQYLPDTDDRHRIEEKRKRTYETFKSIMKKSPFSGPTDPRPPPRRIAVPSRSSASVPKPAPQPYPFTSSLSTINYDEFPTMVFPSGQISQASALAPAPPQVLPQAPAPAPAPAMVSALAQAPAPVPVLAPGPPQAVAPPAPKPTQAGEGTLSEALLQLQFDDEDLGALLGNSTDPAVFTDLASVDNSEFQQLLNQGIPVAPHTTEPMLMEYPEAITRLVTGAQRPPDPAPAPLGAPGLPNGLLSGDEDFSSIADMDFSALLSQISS

[2] = biological target: T1, SLPI (secretory leucoprotease inhibitor); remark: listed apart in the source

Row | Binder | binding result [1] | binding result (NF-kB p65) | binding result [2]
1 | B1 | binds | binds | –
2 | B2 | – | – | binds
3 | B3 | – | – | no binding
4 | B4 | – | – | no binding
5 | B5 | – | – | no binding
